Measurements from patent publication US10280205B2, “Method for treating cancer with an activated T lymphocyte that selectively recognizes a cancer cell consisting of specific peptide” (immatics biotechnologies GmbH, priority 2015, dated 2019).

Target: HLA-A*02:01 (Homo sapiens, UniProt P04439, D140Y/D185E/D98H/E176V/E277Q/G131W/G231S/I119V/I121R/I166T/I218V/L300P/L318F/N151K/N90K/P208A/P217A/Q86G/Q94H/R138H/R169H/T345S)
Experiment: MHC binding assay: UV-ligand exchange with beta2m ELISA (exchange yield)
Conditions: binding to HLA-A*02:01, β2m ELISA
Description: Candidate peptides for T cell based therapies according to the present invention were further tested for their MHC binding capacity (affinity). The individual peptide-MHC complexes were produced by UV-ligand exchange, where a UV-sensitive peptide is cleaved upon UV-irradiation, and exchanged with the peptide of interest as analyzed. Only peptide candidates that can effectively bind and stabilize the peptide-receptive MHC molecules prevent dissociation of the MHC complexes. To determine the yield of the exchange reaction, an ELISA was performed based on the detection of the light chain (β2m) of stabilized MHC complexes. The assay was performed as generally described in Rodenko et al. (Rodenko et al., 2006).
96 well MAXISorp plates (NUNC) were coated over night with 2 ug/ml streptavidin in PBS at room temperature, washed 4× and blocked for 1 h at 37° C. in 2% BSA containing blocking buffer. […] Peptide-MHC monomers of the UV-exchange reaction were diluted 100 fold in blocking buffer. Samples were incubated for 1h at 37° C., washed four times, incubated with 2 ug/ml HRP conjugated anti-β2m for 1h at 37° C., washed again and detected with TMB solution that is stopped with […]. Absorption was measured at 450 nm. Candidate peptides that show a high exchange yield (preferably higher than 50%, most preferred higher than 75%) are generally preferred for a generation and production of antibodies or fragments thereof, and/or T cell receptors or fragments thereof, as they show sufficient avidity to the MHC molecules and prevent dissociation of the MHC complexes.

| Substance | Peptide exchange (MHC class I binding score, peptide exchange yield) |
| --- | --- |
| 430 (HLYSSIEHLTT; listed as Homo sapiens) [compound 430] | “+++” (≥50 = +++) |
| 479 (SLFGNSGILENV; listed as Homo sapiens) [compound 479] | “+++” (≥50 = +++) |
| 15 (VLLTFKIFL; listed as Homo sapiens) [compound 15] | “++” (≥20% = ++) |
| 6 (VLVSDGVHSV; listed as Homo sapiens) [compound 6] | “+++” (≥50 = +++) |
| 241 (SLVEVNPAYSV; listed as Homo sapiens) [compound 241] | “+++” (≥50 = +++) |
| 44 (ILDPISSGFLL; listed as Homo sapiens) [compound 44] | “++” (≥20% = ++) |
| 478 (YLLHEKLNL; listed as Homo sapiens) [compound 478] | “+++” (≥50 = +++) |
| 565 (ALQETPTSV; listed as Homo sapiens) [compound 565] | “++” (≥20% = ++) |
| 542 (RVWDISTVSSV; listed as Homo sapiens) [compound 542] | “+++” (≥50 = +++) |
| 373 (SLLEDKGLAEV; listed as Homo sapiens) [compound 373] | “++” (≥20% = ++) |
| 463 (SLVESHLSDQLTL; listed as Homo sapiens) [compound 463] | “+++” (≥50 = +++) |
| 518 (KLNAEVACV; listed as Homo sapiens) [compound 518] | “+++” (≥50 = +++) |
| 538 (LLLAHIIAL; listed as Homo sapiens) [compound 538] | “++” (≥20% = ++) |
| 595 (VLLSIYPRV; listed as Homo sapiens) [compound 595] | “+++” (≥50 = +++) |
| 119 (FLYIGDIVSL; listed as Homo sapiens) [compound 119] | “++++” (≥75% = ++++) |
| 431 (SLVNVVPKL; listed as Homo sapiens) [compound 431] | “++” (≥20% = ++) |
| 41 (SLMPHIPGL; listed as Homo sapiens) [compound 41] | “+++” (≥50 = +++) |
| 311 (RLYTGMHTV; listed as Homo sapiens) [compound 311] | “+++” (≥50 = +++) |
| 223 (ALLENIALYL; listed as Homo sapiens) [compound 223] | “+++” (≥50 = +++) |

| Substance | Peptide exchange (MHC class I binding score, peptide exchange yield) |
| --- | --- |
| 506 (KLLGKVETA; listed as Homo sapiens) [compound 506] | “+++” (≥50 = +++) |
| 318 (GLINTGVLSV; listed as Homo sapiens) [compound 318] | “++” (≥20% = ++) |
| 220 (LLQKFVPEI; listed as Homo sapiens) [compound 220] | “++” (≥20% = ++) |
| 523 (YQIPRTFTL; listed as Homo sapiens) [compound 523] | “++” (≥20% = ++) |
| 521 (MLLTKLPTI; listed as Homo sapiens) [compound 521] | “+++” (≥50 = +++) |
| 583 (ILANDGVLLAA; listed as Homo sapiens) [compound 583] | “+++” (≥50 = +++) |
| 289 (VLLEIEDLQV; listed as Homo sapiens) [compound 289] | “++++” (≥75% = ++++) |
| 161 (ALLEGVNTV; listed as Homo sapiens) [compound 161] | “+++” (≥50 = +++) |
| 211 (LLWPGAALL; listed as Homo sapiens) [compound 211] | “++” (≥20% = ++) |
| 484 (SLIEKVTQL; listed as Homo sapiens) [compound 484] | “+++” (≥50 = +++) |
| 224 (TLIDAQWVL; listed as Homo sapiens) [compound 224] | “+++” (≥50 = +++) |
| 135 (ALSEVDFQL; listed as Homo sapiens) [compound 135] | “+++” (≥50 = +++) |
| 402 (VLFSGALLGL; listed as Homo sapiens) [compound 402] | “++” (≥20% = ++) |
| 572 (ALADLIEKELSV; listed as Homo sapiens) [compound 572] | “+++” (≥50 = +++) |
| 104 (STMEQNFLL; listed as Homo sapiens) [compound 104] | “++++” (≥75% = ++++) |
| 13 (YLMDESLNL; listed as Homo sapiens) [compound 13] | “+++” (≥50 = +++) |
| 93 (LLQAIKLYL; listed as Homo sapiens) [compound 93] | “++” (≥20% = ++) |
| 253 (GLDAATATV; listed as Homo sapiens) [compound 253] | “++” (≥20% = ++) |
| 365 (YVIDQGETDVYV; listed as Homo sapiens) [compound 365] | “+++” (≥50 = +++) |

| Substance | Peptide exchange (MHC class I binding score, peptide exchange yield) |
| --- | --- |
| 485 (NVPDSFNEV; listed as Homo sapiens) [compound 485] | “+++” (≥50 = +++) |
| 333 (FLPDANSSV; listed as Homo sapiens) [compound 333] | “++” (≥20% = ++) |
| 461 (VMFRTPLASV; listed as Homo sapiens) [compound 461] | “++” (≥20% = ++) |
| 17 (GLLPGDRLVSV; listed as Homo sapiens) [compound 17] | “+++” (≥50 = +++) |
| 222 (NLIENVQRL; listed as Homo sapiens) [compound 222] | “++” (≥20% = ++) |
| 54 (SLLEQGKEPWMV; listed as Homo sapiens) [compound 54] | “+++” (≥50 = +++) |
| 493 (GLLGEKTQDLIGV; listed as Homo sapiens) [compound 493] | “+++” (≥50 = +++) |
| 204 (KIAENVEEV; listed as Homo sapiens) [compound 204] | “++” (≥20% = ++) |
| 303 (AILPQLFMV; listed as Homo sapiens) [compound 303] | “++++” (≥75% = ++++) |
| 383 (ALLELENSVTL; listed as Homo sapiens) [compound 383] | “+++” (≥50 = +++) |
| 510 (KLYSVVSQL; listed as Homo sapiens) [compound 510] | “++” (≥20% = ++) |
| 456 (LLIGHLERV; listed as Homo sapiens) [compound 456] | “+++” (≥50 = +++) |
| 200 (LLFGSVQEV; listed as Homo sapiens) [compound 200] | “+++” (≥50 = +++) |
| 39 (SVAPNLPAV; listed as Homo sapiens) [compound 39] | “+++” (≥50 = +++) |
| 566 (VIADGGIQNV; listed as Homo sapiens) [compound 566] | “++” (≥20% = ++) |
| 7 (SLVGLLLYL; listed as Homo sapiens) [compound 7] | “++++” (≥75% = ++++) |
| 618 (VLFDSESIGIYV; listed as Homo sapiens) [compound 618] | “+++” (≥50 = +++) |
| 487 (LLINSVFHV; listed as Homo sapiens) [compound 487] | “+++” (≥50 = +++) |
